PMC3400562 (2012)
Where two headings read alike, the source gives them in different places.

Legend:
wt MPER peptide [1] = target: wt MPER peptide (HIV-1)
wt MPER peptide [2] = target: wt MPER peptide (HIV-1); remark: listed apart in the source
wt MPER peptide [3] = target: wt MPER peptide (HIV-1); remark: listed apart in the source
wt MPER peptide [4] = target: wt MPER peptide (HIV-1); remark: listed apart in the source

B1: 2F5 variant e4W (antibody, V domains shown)
VH: RITLKESGPPLVKPTQTLTLTCSFSGFSLSDFGVGVGWIRQPPGKALEWLAIIYSDDDKRYSPSLNTRLTITKDTSKNQVVLVMTRVSPVDTATYFCAHRRGPTTGGLFGWGGPIARGPVNAMDVWGQGITVTISS
VL: ALQLTQSPSSLSASVGDRITITCRASQGVTSALAWYRQKPGSPPQLLIYDASSLESGVPSRFSGSGSGTEFTLTISTLRPEDFATYYCQQLHFYPHTFGGGTRVDVR
Which results are given for B1?
koff (wt MPER peptide [1]): 0.0105 s⁻¹; Kd (wt MPER peptide [2]): 145 nM

B2: 2F5 variant r6W (antibody, V domains shown)
VH: RITLKESGPPLVKPTQTLTLTCSFSGFSLSDFGVGVGWIRQPPGKALEWLAIIYSDDDKRYSPSLNTRLTITKDTSKNQVVLVMTRVSPVDTATYFCAHRRGLFGWRGPVNAMDVWGQGITVTISS
VL: ALQLTQSPSSLSASVGDRITITCRASQGVTSALAWYRQKPGSPPQLLIYDASSLESGVPSRFSGSGSGTEFTLTISTLRPEDFATYYCQQLHFYPHTFGGGTRVDVR
Which koff (wt MPER peptide [1]) does the source give for B2 here?
Its koff is 0.0224 s⁻¹.

What about the Kd (wt MPER peptide [2]) of the same binder?
Its Kd is 353 nM.

B3: 2F5 variant r4W2b (antibody, V domains shown)
VH: RITLKESGPPLVKPTQTLTLTCSFSGFSLSDFGVGVGWIRQPPGKALEWLAIIYSDDDKRYSPSLNTRLTITKDTSKNQVVLVMTRVSPVDTATYFCAHRRGPLFWWARGPVNAMDVWGQGITVTISS
VL: ALQLTQSPSSLSASVGDRITITCRASQGVTSALAWYRQKPGSPPQLLIYDASSLESGVPSRFSGSGSGTEFTLTISTLRPEDFATYYCQQLHFYPHTFGGGTRVDVR
How did the koff (wt MPER peptide [1]) turn out when B3 was run?
The koff was 0.0034 s⁻¹.

And the Kd (wt MPER peptide [2])?
Its Kd is 3.94 nM.

B4: 2F5 variant e2W (antibody, V domains shown)
VH: RITLKESGPPLVKPTQTLTLTCSFSGFSLSDFGVGVGWIRQPPGKALEWLAIIYSDDDKRYSPSLNTRLTITKDTSKNQVVLVMTRVSPVDTATYFCAHRRGPTTGLFGWGPIARGPVNAMDVWGQGITVTISS
VL: ALQLTQSPSSLSASVGDRITITCRASQGVTSALAWYRQKPGSPPQLLIYDASSLESGVPSRFSGSGSGTEFTLTISTLRPEDFATYYCQQLHFYPHTFGGGTRVDVR
How did the koff (wt MPER peptide [1]) turn out when B4 was run?
Its koff is 0.0105 s⁻¹.

And the Kd (wt MPER peptide [2])?
Its Kd is 131 nM.

B5: 2F5 variant r2W (antibody, V domains shown)
VH: RITLKESGPPLVKPTQTLTLTCSFSGFSLSDFGVGVGWIRQPPGKALEWLAIIYSDDDKRYSPSLNTRLTITKDTSKNQVVLVMTRVSPVDTATYFCAHRRGPTLFGWIARGPVNAMDVWGQGITVTISS
VL: ALQLTQSPSSLSASVGDRITITCRASQGVTSALAWYRQKPGSPPQLLIYDASSLESGVPSRFSGSGSGTEFTLTISTLRPEDFATYYCQQLHFYPHTFGGGTRVDVR
How did the koff (wt MPER peptide [1]) turn out when B5 was run?
The koff was 0.00435 s⁻¹.

What about the Kd (wt MPER peptide [2]) of the same binder?
Its Kd is 29.5 nM.

B6: 2F5 variant r4W2c (antibody, V domains shown)
VH: RITLKESGPPLVKPTQTLTLTCSFSGFSLSDFGVGVGWIRQPPGKALEWLAIIYSDDDKRYSPSLNTRLTITKDTSKNQVVLVMTRVSPVDTATYFCAHRRGPWFGWARGPVNAMDVWGQGITVTISS
VL: ALQLTQSPSSLSASVGDRITITCRASQGVTSALAWYRQKPGSPPQLLIYDASSLESGVPSRFSGSGSGTEFTLTISTLRPEDFATYYCQQLHFYPHTFGGGTRVDVR
For B6, which koff (wt MPER peptide [1]) is on record?
The koff was 0.00112 s⁻¹.

What about the Kd (wt MPER peptide [2]) of the same binder?
The Kd was 5.12 nM.

B7: 2F5 variant r4W2a (antibody, V domains shown)
VH: RITLKESGPPLVKPTQTLTLTCSFSGFSLSDFGVGVGWIRQPPGKALEWLAIIYSDDDKRYSPSLNTRLTITKDTSKNQVVLVMTRVSPVDTATYFCAHRRGPLFGWWRGPVNAMDVWGQGITVTISS
VL: ALQLTQSPSSLSASVGDRITITCRASQGVTSALAWYRQKPGSPPQLLIYDASSLESGVPSRFSGSGSGTEFTLTISTLRPEDFATYYCQQLHFYPHTFGGGTRVDVR
Which koff (wt MPER peptide [1]) does the source give for B7 here?
Its koff is 0.00106 s⁻¹.

What about the Kd (wt MPER peptide [2]) of the same binder?
Its Kd is 2.57 nM.

B8: 2F5 variant r4WY (antibody, V domains shown)
VH: RITLKESGPPLVKPTQTLTLTCSFSGFSLSDFGVGVGWIRQPPGKALEWLAIIYSDDDKRYSPSLNTRLTITKDTSKNQVVLVMTRVSPVDTATYFCAHRRGPLFGWYRGPVNAMDVWGQGITVTISS
VL: ALQLTQSPSSLSASVGDRITITCRASQGVTSALAWYRQKPGSPPQLLIYDASSLESGVPSRFSGSGSGTEFTLTISTLRPEDFATYYCQQLHFYPHTFGGGTRVDVR
For B8, which koff (wt MPER peptide [1]) is on record?
Its koff is 0.00055 s⁻¹.

What about the Kd (wt MPER peptide [2]) of the same binder?
The Kd was 2.77 nM.

B9: 2F5 variant r4W3 (antibody, V domains shown)
VH: RITLKESGPPLVKPTQTLTLTCSFSGFSLSDFGVGVGWIRQPPGKALEWLAIIYSDDDKRYSPSLNTRLTITKDTSKNQVVLVMTRVSPVDTATYFCAHRRGPWFGWWRGPVNAMDVWGQGITVTISS
VL: ALQLTQSPSSLSASVGDRITITCRASQGVTSALAWYRQKPGSPPQLLIYDASSLESGVPSRFSGSGSGTEFTLTISTLRPEDFATYYCQQLHFYPHTFGGGTRVDVR
For B9, which Kd (wt MPER peptide [3]) is on record?
The Kd was 2.2 nM.

What about the koff (wt MPER peptide [4]) of the same binder?
Its koff is 0.00174 s⁻¹.

B10: 2F5 variant r4WY2 (antibody, V domains shown)
VH: RITLKESGPPLVKPTQTLTLTCSFSGFSLSDFGVGVGWIRQPPGKALEWLAIIYSDDDKRYSPSLNTRLTITKDTSKNQVVLVMTRVSPVDTATYFCAHRRGPYFGWYRGPVNAMDVWGQGITVTISS
VL: ALQLTQSPSSLSASVGDRITITCRASQGVTSALAWYRQKPGSPPQLLIYDASSLESGVPSRFSGSGSGTEFTLTISTLRPEDFATYYCQQLHFYPHTFGGGTRVDVR
B10 was tested. Which koff (wt MPER peptide [1]) did it give?
Its koff is 0.00193 s⁻¹.

What about the Kd (wt MPER peptide [2]) of the same binder?
Its Kd is 5.49 nM.

B11: 2F5 variant r4W (antibody, V domains shown)
VH: RITLKESGPPLVKPTQTLTLTCSFSGFSLSDFGVGVGWIRQPPGKALEWLAIIYSDDDKRYSPSLNTRLTITKDTSKNQVVLVMTRVSPVDTATYFCAHRRGPLFGWARGPVNAMDVWGQGITVTISS
VL: ALQLTQSPSSLSASVGDRITITCRASQGVTSALAWYRQKPGSPPQLLIYDASSLESGVPSRFSGSGSGTEFTLTISTLRPEDFATYYCQQLHFYPHTFGGGTRVDVR
Which results are given for B11?
koff (wt MPER peptide [1]): 0.00681 s⁻¹; Kd (wt MPER peptide [2]): 79.6 nM
